Assay results taken from patent publication US20240425603A1 (Janssen / Centocor, published 2024).
“And” between values parts separate entries of the source, which are not always exact repeats. Equal values may be shown once.

B1: VGFB71 (antibody, human IgG1, lambda, L234A L235A, V domains shown)
VH: EVQLLESGGGLVQPGGSLRLSCEASGFIFRDYNMNWVRQAPGKGLEWVSIITNDGSSTAYSDSVKGRFTISRDNSKNSLYLQMNSLRAEDTAIYYCVKVYYGMDDWGQGTTVTVSS
VL: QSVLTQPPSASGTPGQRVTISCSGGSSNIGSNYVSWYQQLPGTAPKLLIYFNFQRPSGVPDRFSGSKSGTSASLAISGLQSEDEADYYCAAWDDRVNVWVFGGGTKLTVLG
notes: human IgG1 (L234A/L235A/D265S)
B2: VGFB82 (antibody, human IgG1, lambda, L234A L235A, V domains shown)
VH: EVQLLESGGGLVQPGGSLRLSCEASGFDFSTYAMNWVRQAPGKGLEWVATINSEGTITSHAPAVKGRFTISRDNSKNTAYVQMNSLRAEDSAVYYCSSTTGTTHGMDVWGRGTTVTVSS
VL: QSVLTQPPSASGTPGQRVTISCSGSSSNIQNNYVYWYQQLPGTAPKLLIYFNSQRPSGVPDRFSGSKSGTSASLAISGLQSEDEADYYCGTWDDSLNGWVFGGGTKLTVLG
notes: as for B1

Key:
[1] = target: T1, NECTIN1 Isoform Alpha (NM_203285.1) (human, UniProt Q15223-2 31-458); assay: Retrogenix cell microarray, fixed HEK293 cells, 2 ug/mL antibody
T1 construct: whole, on cells
T1 sequence (looked up): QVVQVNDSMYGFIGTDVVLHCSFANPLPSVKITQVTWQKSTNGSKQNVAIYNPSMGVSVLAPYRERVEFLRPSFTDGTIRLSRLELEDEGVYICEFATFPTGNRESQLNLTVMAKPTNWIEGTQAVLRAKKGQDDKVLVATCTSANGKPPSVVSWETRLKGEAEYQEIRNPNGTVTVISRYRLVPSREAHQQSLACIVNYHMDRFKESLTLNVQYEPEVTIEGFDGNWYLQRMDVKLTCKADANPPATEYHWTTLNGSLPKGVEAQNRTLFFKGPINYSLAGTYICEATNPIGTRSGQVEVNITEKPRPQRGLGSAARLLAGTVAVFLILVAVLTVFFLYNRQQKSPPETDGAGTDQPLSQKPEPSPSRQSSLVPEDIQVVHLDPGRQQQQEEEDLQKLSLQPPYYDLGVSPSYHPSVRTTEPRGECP
Protocol: This human cell microarray methodology has been previously described in the literature (Freeth, J. et al, SLAS Discovery, 25 (2), 223-230, 2020). Primary screening was performed on slides arrayed with fixed HEK293 cells with each spot of HEK293 cells expressing either a unique protein from the cell surface-ome, a cell surface tethered human secreted protein, or a heterodimeric human cell surface receptor. In total, 5,528 unique gene products were represented in this primary screen (4,103 human plasma membrane proteins (+some untethered secreted proteins)+1,425 cell surface tethered human secreted proteins). Briefly, slides containing fixed transfected HEK293 cells were overlaid with a solution of test antibody (2 μg/mL), incubated, and washed. Binding was assessed using AlexaFluor647-conjugated anti-human IgG Fc detection antibody and fluorescence quantitation on ImageQuant. […] Located in the ER, off-target binding to CRELD2 was of less concern. Nectin-1, FGFR2, and ISLR, on the other hand, display broad tissue expression profiles. Cross-reactivity to these proteins is undesirable because binding to these targets might have a significant impact on pharmacokinetic and biodistribution profiles of the molecules. This off-target binding was subsequently confirmed by flow cytometry on live HEK293 cells transiently expressing these ‘off-target’ proteins identified in the primary screen.

[2] = target: human VEGFR1 (soluble antigen of the KinExA and SPR affinity assays) (human, UniProt P17948 27-758, limits assumed); assay: SPR
[3] = target: T2, rat VEGFR1 (soluble antigen of the KinExA and SPR affinity assays) (rat, UniProt P53767 23-758, limits assumed); assay: SPR
T2 sequence (looked up): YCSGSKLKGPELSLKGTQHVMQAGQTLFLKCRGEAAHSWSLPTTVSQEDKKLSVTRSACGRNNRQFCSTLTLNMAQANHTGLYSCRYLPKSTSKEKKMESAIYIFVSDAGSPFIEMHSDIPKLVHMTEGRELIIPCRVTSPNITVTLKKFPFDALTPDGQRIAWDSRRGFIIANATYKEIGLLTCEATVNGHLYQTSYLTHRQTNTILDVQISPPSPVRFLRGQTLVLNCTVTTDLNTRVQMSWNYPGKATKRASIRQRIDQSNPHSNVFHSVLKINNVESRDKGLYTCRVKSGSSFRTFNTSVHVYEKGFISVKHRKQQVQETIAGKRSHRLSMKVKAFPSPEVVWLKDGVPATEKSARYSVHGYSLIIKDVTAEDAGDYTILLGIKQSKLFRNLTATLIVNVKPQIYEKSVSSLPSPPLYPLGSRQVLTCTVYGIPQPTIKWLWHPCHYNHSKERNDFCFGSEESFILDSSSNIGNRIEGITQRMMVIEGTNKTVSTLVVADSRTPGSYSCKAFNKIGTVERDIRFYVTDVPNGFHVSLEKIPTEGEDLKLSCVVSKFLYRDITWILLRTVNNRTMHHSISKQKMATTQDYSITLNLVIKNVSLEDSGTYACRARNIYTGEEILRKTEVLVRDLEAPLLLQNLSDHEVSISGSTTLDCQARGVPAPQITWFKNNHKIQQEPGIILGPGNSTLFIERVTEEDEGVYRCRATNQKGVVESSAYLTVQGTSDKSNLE

human VEGFR1 (soluble antigen of the KinExA and SPR affinity assays), sequence (P17948 27-758 limits assumed): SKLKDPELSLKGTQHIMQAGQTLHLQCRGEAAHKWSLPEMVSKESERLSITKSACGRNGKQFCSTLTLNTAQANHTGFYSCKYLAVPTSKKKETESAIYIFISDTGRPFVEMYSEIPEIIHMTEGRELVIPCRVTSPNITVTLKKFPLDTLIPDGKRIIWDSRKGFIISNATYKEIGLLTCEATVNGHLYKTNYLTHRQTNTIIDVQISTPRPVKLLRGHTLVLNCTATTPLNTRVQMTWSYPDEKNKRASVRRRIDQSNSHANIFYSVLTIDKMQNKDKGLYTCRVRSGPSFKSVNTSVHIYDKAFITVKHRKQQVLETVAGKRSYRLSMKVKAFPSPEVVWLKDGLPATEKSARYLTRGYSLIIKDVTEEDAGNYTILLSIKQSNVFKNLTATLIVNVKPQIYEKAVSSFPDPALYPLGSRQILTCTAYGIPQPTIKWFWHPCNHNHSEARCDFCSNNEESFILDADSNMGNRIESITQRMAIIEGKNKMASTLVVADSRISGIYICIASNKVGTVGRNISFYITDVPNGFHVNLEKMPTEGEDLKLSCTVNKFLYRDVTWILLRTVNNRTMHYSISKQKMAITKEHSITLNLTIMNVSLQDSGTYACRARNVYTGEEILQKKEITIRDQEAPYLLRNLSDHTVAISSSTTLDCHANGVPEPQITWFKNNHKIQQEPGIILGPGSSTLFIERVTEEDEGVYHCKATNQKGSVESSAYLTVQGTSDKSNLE

Binder | binding result [1] | Kd [2] | Kd [3] [nM]
B1 | binds | – | –
B2 | – | 0.01 nM and < 0.006 nM | 0.6 to 1
